Consider three molecules from PMC8629852 (Archives of biochemistry and biophysics, 2021).

The target in one data set is adrenodoxin (UniProt P00257). Particulars: cited from earlier work.
Data set [1] has as its target adrenodoxin (Homo sapiens) (UniProt P10109). The data set is described as follows: microscale thermophoresis. Particulars: cited from earlier work. (Microscale thermophoresis detects binding through changes in fluorescence in a small temperature gradient.)
The data set “cross-linking” deals with the molecule itself. The experiment in a line: cross-linking.

A word on the Kd: it is the concentration at which binding is half-saturated. On to AdR (from UniProt P08165), for which the Kd with adrenodoxin was 0.07 µM.

As for P450 27C1 (from UniProt Q4G0S4), in data set [1], the Kd is 0.22 µM.

B1: Human adrenodoxin (Adx), unlabeled (natural protein, UniProt P10109 61-184, looked up)
chain: SSSEDKITVHFINRDGETLTTKGKVGDSLLDVVVENNLDIDGFGACEGTLACSTCHLIFEDHIYEKLDAITDEENDMLDLAYGLTDRSRLGCQICLTKSMDNMTVRVPETVADARQSIDVGKTS
By stoichiometry N is commonly meant a count of units in the complex or per binding partner. Take B1: in the data set “cross-linking”, the “stoichiometry N” value was determined as 2.
